Assay results published in paper PMC6939906, “Leucine zipper transcription factor-like 1 binds adaptor protein complex-1 and 2 and participates in trafficking of transferrin receptor 1” (PLoS ONE, 2020).
Each block holds one binder with its values, some of them ahead of it.

Legend:
Details in all cases: both partners purified
[1] = target: T1, GST-β1 (glutathione S-transferase fused β1 subunit of AP-1) (human, UniProt Q10567 1-949); assay: pull-down; Factor Xa cleaved MBP-LZTFL1 incubated with GST-fused β1 subunit of AP-1 held on Glutathione Sepharose 4B
T1 construct: cloned in pGEX-6P-1; also called GST-β1 (AP-1); GST-fused β1 subunit of AP-1; source: E. coli, purified (Glutathione Sepharose 4B)
T1 sequence (looked up): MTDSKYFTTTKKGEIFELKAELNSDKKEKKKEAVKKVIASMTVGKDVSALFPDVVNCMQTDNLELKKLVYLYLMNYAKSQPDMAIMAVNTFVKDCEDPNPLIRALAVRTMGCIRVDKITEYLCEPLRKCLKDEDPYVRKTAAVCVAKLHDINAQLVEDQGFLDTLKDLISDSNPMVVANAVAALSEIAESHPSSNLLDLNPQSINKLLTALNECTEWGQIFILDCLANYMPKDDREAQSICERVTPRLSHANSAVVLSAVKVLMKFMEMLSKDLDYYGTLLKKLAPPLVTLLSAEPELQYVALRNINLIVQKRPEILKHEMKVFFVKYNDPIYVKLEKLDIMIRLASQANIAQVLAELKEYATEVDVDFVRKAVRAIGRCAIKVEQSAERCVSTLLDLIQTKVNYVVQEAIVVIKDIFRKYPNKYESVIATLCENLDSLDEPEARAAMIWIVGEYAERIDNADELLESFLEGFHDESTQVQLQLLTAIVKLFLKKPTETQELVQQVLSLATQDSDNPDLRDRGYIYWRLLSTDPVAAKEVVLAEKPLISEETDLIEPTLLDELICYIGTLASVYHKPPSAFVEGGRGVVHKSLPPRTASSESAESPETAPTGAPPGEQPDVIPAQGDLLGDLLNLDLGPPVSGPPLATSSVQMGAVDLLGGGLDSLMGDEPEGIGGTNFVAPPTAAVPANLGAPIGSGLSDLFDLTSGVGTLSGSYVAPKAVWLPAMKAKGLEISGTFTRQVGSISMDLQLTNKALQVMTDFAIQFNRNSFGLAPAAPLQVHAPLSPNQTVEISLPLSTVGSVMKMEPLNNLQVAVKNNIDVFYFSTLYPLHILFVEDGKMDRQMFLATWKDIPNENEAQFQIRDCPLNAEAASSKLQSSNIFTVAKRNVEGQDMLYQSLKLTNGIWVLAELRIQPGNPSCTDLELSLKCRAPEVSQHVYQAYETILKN

[2] = target: T2, GST-β2 (GST-fused β2 subunit of AP-2) (human, UniProt P63010 1-937); assay: pull-down; MBP-fused proteins held on amylose resin, purified GST-fused proteins added, overnight at 4°C; blots with anti-MBP and anti-GST
T2 construct: cloned in pGEX-6P-1; also called GST-β2 (AP-2); AP2B1; source: E. coli, purified (Glutathione Sepharose 4B)
T2 sequence (looked up): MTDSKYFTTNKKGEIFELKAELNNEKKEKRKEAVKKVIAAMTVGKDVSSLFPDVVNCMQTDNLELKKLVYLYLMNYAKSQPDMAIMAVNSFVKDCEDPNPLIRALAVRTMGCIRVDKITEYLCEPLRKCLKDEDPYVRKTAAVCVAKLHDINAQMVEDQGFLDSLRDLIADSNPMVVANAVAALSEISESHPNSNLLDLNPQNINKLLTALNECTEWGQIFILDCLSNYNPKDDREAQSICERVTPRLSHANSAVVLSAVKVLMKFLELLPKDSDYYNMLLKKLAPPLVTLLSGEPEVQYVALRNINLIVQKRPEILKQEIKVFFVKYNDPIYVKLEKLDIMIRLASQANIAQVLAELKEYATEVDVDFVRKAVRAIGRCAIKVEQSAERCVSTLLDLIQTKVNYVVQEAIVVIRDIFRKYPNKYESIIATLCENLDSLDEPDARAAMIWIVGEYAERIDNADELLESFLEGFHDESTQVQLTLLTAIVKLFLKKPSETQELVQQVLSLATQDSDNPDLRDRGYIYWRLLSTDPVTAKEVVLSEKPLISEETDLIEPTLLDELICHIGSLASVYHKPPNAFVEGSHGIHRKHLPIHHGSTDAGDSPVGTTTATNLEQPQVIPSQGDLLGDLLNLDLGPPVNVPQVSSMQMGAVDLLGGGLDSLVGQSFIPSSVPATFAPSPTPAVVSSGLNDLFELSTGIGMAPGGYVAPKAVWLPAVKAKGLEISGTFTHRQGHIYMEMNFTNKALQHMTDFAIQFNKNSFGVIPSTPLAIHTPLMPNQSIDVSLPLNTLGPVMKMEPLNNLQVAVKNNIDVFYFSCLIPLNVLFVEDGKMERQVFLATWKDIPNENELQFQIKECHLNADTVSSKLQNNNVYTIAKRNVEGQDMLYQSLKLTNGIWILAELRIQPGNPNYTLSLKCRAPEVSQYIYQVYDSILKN

[3] = target: T1, GST-β1 (glutathione S-transferase fused …); assay: as above

- binding result [1]: binds
B1: LZTFL1 from purified MBP-LZTFL1 cleaved by Factor Xa (natural protein, human, UniProt Q9NQ48-1 1-299, looked up)
chain: MAELGLNEHHQNEVINYMRFARSKRGLRLKTVDSCFQDLKESRLVEDTFTIDEVSEVLNGLQAVVHSEVESELINTAYTNVLLLRQLFAQAEKWYLKLQTDISELENRELLEQVAEFEKAEITSSNKKPILDVTKPKLAPLNEGGTAELLNKEILRLQEENEKLKSRLKTIEIQATNALDEKSKLEKALQDLQLDQGNQKDFIKAQDLSNLENTVAALKSEFQKTLNDKTENQKSLEENLATAKHDLLRVQEQLHMAEKELEKKFQQTAAYRNMKEILTKKNDQIKDLRKRLAQYEPED
notes: human LZTFL1, wild type; also called Factor Xa cleaved MBP-LZTFL1; source: E. coli, purified as MBP fusion (amylose resin), cleaved with Factor Xa

- binding result [2]: binds
- binding result [3]: binds
B2: MBP-LZTFL1 (maltose-binding protein fused with human LZTFL1) (natural protein, UniProt Q9NQ48-1 1-299, looked up)
chain: B1 chain
notes: human LZTFL1, wild type; cloned in pMAL-c2X; also called MBP-fused LZTFL1; wild-type LZTFL1; source: E. coli, purified (amylose resin)
